Data published in patent US20100047253A1.

How the values were obtained:
[1] = molecular target: human IL-13 (source not stated for the assay) (human) (UniProt P35225); experiment: cell-based or functional assay
[2] = molecular target: IL-13 variant IL-13Q110R (human) (UniProt P35225); experiment: cell-based or functional assay
[3] = molecular target: IL-13 variant IL-13Q110R (human) (UniProt P35225); experiment: SPR (Biacore 2000), mAb captured on goat anti-human surface, IL-13 variant (Peprotech) 23.6-0.185 nM, 1:1 model

IL-13 variant IL-13Q110R (human), sequence (P35225 33-146, stated change not applied): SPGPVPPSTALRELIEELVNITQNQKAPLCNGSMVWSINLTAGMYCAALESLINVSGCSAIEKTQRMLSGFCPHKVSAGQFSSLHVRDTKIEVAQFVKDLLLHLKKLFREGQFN
human IL-13 (source not stated for the assay) (human), sequence (P35225 35-146 limits assumed): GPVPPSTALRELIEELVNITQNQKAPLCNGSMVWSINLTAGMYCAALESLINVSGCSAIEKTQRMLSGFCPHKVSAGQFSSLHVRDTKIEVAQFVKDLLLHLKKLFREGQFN

B1: murine IL-13 receptor α2/FC (Fc fusion, mouse, UniProt O88786 22-334, looked up, not shown: a dimerising Fc or GST)
chain: LEIKVNPPQDFEILDPGLLGYLYLQWKPPVVIEKFKGCTLEYELKYRNVDSDSWKTIITRNLIYKDGFDLNKGIEGKIRTHLSEHCTNGSEVQSPWIEASYGISDEGSLETKIQDMKCIYYNWQYLVCSWKPGKTVYSDTNYTMFFWYEGLDHALQCADYLQHDEKNVGCKLSNLDSSDYKDFFICVNGSSKLEPIRSSYTVFQLQNIVKPLPPEFLHISVENSIDIRMKWSTPGGPIPPRCYTYEIVIREDDISWESATDKNDMKLKRRANESEDLCFFVRCKVNIYCADDGIWSEWSEEECWEGYTGPDSK
- IC50, IL-13 induced eotaxin release, Average [1]: 0.032 nM
- IC50, IL-13 induced eotaxin release, n = 1 [1]: 0.029 nM
- IC50, IL-13 induced eotaxin release, n = 2 [1]: 0.039 nM
- IC50, IL-13 induced eotaxin release, n = 3 [1]: 0.029 nM

B2: mAb 731 (antibody, V domains shown)
VH: EVQLLESGGGLVQPGGSLRLSCAASGFTFSSYAMSWVRQAPGKGLEWVSAFSGSGGSTYYADSVKGRFTISRDNSKNTLYLQMNSLRAEDTAVYYCVQDGLGPYFYNYGMDVWGQGTTVTVSS
VL: SYELTQPPSVSVSPGQTASITCSGDKLGDKYACWFQQKPGQSPVLVIYHDSKRPSGIPERFSGSNSGDTATLTISGTQAMDEADYYCQAWDSSTYVFGTGTKVTVLG
- IC50, eotaxin production by HDFa cells, 300 pM IL-13Q110R [2]: 54 pM
- IC50, eotaxin production by HDFa cells, 600 pM IL-13Q130R [2]: 140 pM
- Kd [3]: 0.0098 nM
- koff [3]: 5.02e-05 s⁻¹
- kon [3]: 5.11e+06 M⁻¹ s⁻¹

B3: mAb 623 (antibody, V domains shown)
VH: EVQLVESGGGLVKPGGSLRLSCAASGFTFSNAWMSWVRQAPGKGLEWVGRIRSEIDGGTTNYAAPVKGRFTISRDDSKNTLYLQMNSLKTEDTAVYYCATDQVGAYYGDYYGMDVWGQGTTVTVSS
VL: SYELTQPPSVSVSPGQTARITCSGDALPEKYAYWYQQKSGQAPVLVIYEDSKRPSGIPERFSGSSSGTMATLTISGAQVEDEADYYCHSTDSSGNHGVFGGGTKLTVLG
- IC50, eotaxin production by HDFa cells, 300 pM IL-13Q110R [2]: 106 pM
- IC50, eotaxin production by HDFa cells, 600 pM IL-13Q130R [2]: 277 pM
- Kd [3]: 0.0388 nM
- koff [3]: 0.000218 s⁻¹
- kon [3]: 5.62e+06 M⁻¹ s⁻¹

B4: human IL-13 receptor α2/Fc (Fc fusion, UniProt Q14627 27-343, looked up, not shown: a dimerising Fc or GST)
chain: DTEIKVNPPQDFEIVDPGYLGYLYLQWQPPLSLDHFKECTVEYELKYRNIGSETWKTIITKNLHYKDGFDLNKGIEAKIHTLLPWQCTNGSEVQSSWAETTYWISPQGIPETKVQDMDCVYYNWQYLLCSWKPGIGVLLDTNYNLFYWYEGLDHALQCVDYIKADGQNIGCRFPYLEASDYKDFYICVNGSSENKPIRSSYFTFQLQNIVKPLPPVYLTFTRESSCEIKLKWSIPLGPIPARCFDYEIEIREDDTTLVTATVENETYTLKTTNETRQLCFVVRSKVNIYCSDDGIWSEWSDKQCWEGEDLSKKTLLR
- EC50, HDLM-2 proliferation assay (3H-thymidine) [1]: 0.6 nM
- EC50, L-1236 proliferation assay (3H-thymidine) [1]: 0.059 nM
- IC50, IL-13-induced CD23 expression on whole blood B cells (FACS) [1]: 4 nM
- IC50, IL-13 induced eotaxin release, Average [1]: 0.131 nM
- IC50, IL-13 induced eotaxin release, n = 1 [1]: 0.128 nM
- IC50, IL-13 induced eotaxin release, n = 2 [1]: 0.147 nM
- IC50, IL-13 induced eotaxin release, n = 3 [1]: 0.119 nM
